According to US10227388B2, “Peptides and combination of peptides for use in immunotherapy against non-small cell lung cancer and other cancers” (immatics biotechnologies GmbH, priority 2015, dated 2019):

These substances were tested against HLA-A*02:01 (Homo sapiens, UniProt P04439, D140Y/D185E/D98H/E176V/E277Q/G131W/G231S/I119V/I121R/I166T/I218V/L300P/L318F/N151K/N90K/P208A/P217A/Q86G/Q94H/R138H/R169H/T345S) (assay: MHC binding assay (UV-ligand exchange, ELISA, peptide exchange yield)). Conditions: binding of HLA-class I restricted peptides to HLA-A*02:01.
Excerpt: Candidate peptides for T cell based therapies according to the present invention were further tested for their MHC binding capacity (affinity). The individual peptide-MHC complexes were produced by UV-ligand exchange, where a UV-sensitive peptide is cleaved upon UV-irradiation, and exchanged with the peptide of interest as analyzed. Only peptide candidates that can effectively bind and stabilize the peptide-receptive MHC molecules prevent dissociation of the MHC complexes. To determine the yield of the exchange reaction, an ELISA was performed based on the detection of the light chain ([…]) of stabilized MHC complexes. The assay was performed as generally described in Rodenko et al. (Rodenko et al., 2006).
96 well MAXISorp plates (NUNC) were coated over night with 2-ug/ml streptavidin in PBS at room temperature, washed 4× and blocked for 1 h at 37° C. in 2% BSA containing blocking buffer. […] Peptide-MHC monomers of the UV-exchange reaction were diluted 100 fold in blocking buffer. Samples were incubated for 1 h at 37° C., washed four times, incubated with 2-ug/ml HRP conjugated anti-β2m for 1 h at 37° C., washed again and detected with TMB solution that is stopped with […]. Absorption was measured at 450 nm. Candidate peptides that show a high exchange yield (preferably higher than 50%, most preferred higher than 75%) are generally preferred for a generation and production of antibodies or fragments thereof, and/or T cell receptors or fragments thereof, as they show sufficient avidity to the MHC molecules and prevent dissociation of the MHC complexes.

Row | Substance | Peptide exchange (MHC class I binding score, peptide exchange yield)
1 | 243 (LLLNELPSV; listed as Homo sapiens) [compound 243] | ″+++″ (≥50% = +++)
2 | 59 (IMEDIILTL; listed as Homo sapiens) [compound 59] | ″+++″ (≥50% = +++)
3 | 64 (YAAPGGLIGV; listed as Homo sapiens) [compound 64] | ″++″ (≥20% = ++)
4 | 242 (AIAYILQGV; listed as Homo sapiens) [compound 242] | ″++″ (≥20% = ++)
5 | 66 (FLDENIGGVAV; listed as Homo sapiens) [compound 66] | ″+++″ (≥50% = +++)
6 | 232 (ALLEAQDVELYL; listed as Homo sapiens) [compound 232] | ″++″ (≥20% = ++)
7 | 230 (ILVDWLVEV; listed as Homo sapiens) [compound 230] | ″+″ (≥10% = +)
8 | 219 (KLSDIGITV; listed as Homo sapiens) [compound 219] | ″+++″ (≥50% = +++)
9 | 162 (YQQAQVPSV; listed as Homo sapiens) [compound 162] | ″+++″ (≥50% = +++)
10 | 15 (VLLTFKIFL; listed as Homo sapiens) [compound 15] | ″++″ (≥20% = ++)
11 | 9 (GAAKDLPGV; listed as Homo sapiens) [compound 9] | ″++″ (≥20% = ++)

Results, then the substance that gave them:

Row | Peptide exchange (MHC class I binding score, peptide exchange yield) | Substance
12 | ″+++″ (≥50% = +++) | 295 (VLDRESPNV; listed as Homo sapiens) [compound 295]
13 | ″+++″ (≥50% = +++) | 586 (KLKPGDLVGV; listed as Homo sapiens) [compound 586]
14 | ″+++″ (≥50% = +++) | 471 (YLYNNMIAKI; listed as Homo sapiens) [compound 471]
15 | ″+++″ (≥50% = +++) | 512 (SLSEIVPCL; listed as Homo sapiens) [compound 512]
16 | ″+++″ (≥50% = +++) | 449 (KLAEGLDIQL; listed as Homo sapiens) [compound 449]
17 | ″+++″ (≥50% = +++) | 485 (NVPDSFNEV; listed as Homo sapiens) [compound 485]
18 | ″+++″ (≥50% = +++) | 619 (ALQDRVPLA; listed as Homo sapiens) [compound 619]
19 | ″+++″ (≥50% = +++) | 561 (YLQLTQSEL; listed as Homo sapiens) [compound 561]
20 | ″+++″ (≥50% = +++) | 345 (VIWKALIHL; listed as Homo sapiens) [compound 345]
21 | ″+++″ (≥50% = +++) | 596 (ALLDQTKTLAESAL; listed as Homo sapiens) [compound 596]
22 | ″+++″ (≥50% = +++) | 515 (LLQELVLFL; listed as Homo sapiens) [compound 515]
23 | ″+++″ (≥50% = +++) | 457 (SLLPGNLVEKV; listed as Homo sapiens) [compound 457]
24 | ″+++″ (≥50% = +++) | 578 (FLDPGGPMMKL; listed as Homo sapiens) [compound 578]
25 | ″++++″ (≥75% = ++++) | 320 (KMFEFVEPLL; listed as Homo sapiens) [compound 320]
26 | ″++″ (≥20% = ++) | 403 (KLYDRILRV; listed as Homo sapiens) [compound 403]
27 | ″+++″ (≥50% = +++) | 249 (LLDGFLVNV; listed as Homo sapiens) [compound 249]
28 | ″++″ (≥20% = ++) | 523 (YQIPRTFTL; listed as Homo sapiens) [compound 523]
